The target in test [1] is pre-existing anti-VH ADA in human serum. The experiment in a line: ADA confirmation assay (MSD): 10 ug/mL test material against labelled DOM1H-131-206, mean of 10 sera.
Test [2] shares this target. The experiment in a line: ADA confirmation assay (MSD): 10 ug/mL test material against labelled DOM1H-131-206; share of 10 ADA-positive sera with binding.
Test [3] shares this target. Nature of the test: ADA confirmation assay (MSD): 10 ug/mL test material against labelled DOM1H-131-206, mean of 10 sera. The source holds these as a separate data set.
Test [4] shares this target. Nature of the test: ADA confirmation assay (MSD): 10 ug/mL test material against labelled DOM1H-131-206; share of 10 ADA-positive sera with binding. This is another data set of the same source.

Like-named read-outs stand apart in the source and are kept apart here.

B1: DOM1H-131-206 P14K + C-terminal A (protein, name in Kabat numbering)
VH: EVQLLESGGGLVQKGGSLRLSCAASGFTFAHETMVWVRQAPGKGLEWVSHIPPDGQDPFYADSVKGRFTISRDNSKNTLYLQMNSLRAEDTAVYHCALLPKRGPWFDYWGQGTLVTVSSA
The molecule B1 had a Mean % inhibition of signal in confirmation assay in test [1] of 29.1%. The same molecule came in with a % subjects with ADA binding (10 subjects) (% of subjects) in test [2] of 10.

B2: DOM1H-131-206 P14Q + C-terminal A (protein, name in Kabat numbering)
VH: EVQLLESGGGLVQQGGSLRLSCAASGFTFAHETMVWVRQAPGKGLEWVSHIPPDGQDPFYADSVKGRFTISRDNSKNTLYLQMNSLRAEDTAVYHCALLPKRGPWFDYWGQGTLVTVSSA
Regarding B2, the Mean % inhibition of signal in confirmation assay in test [1] was determined as 29.7%. Moreover, the % subjects with ADA binding (10 subjects) (% of subjects) in test [2] amounted to 20.

B3: DOM1H-131-206 P14A + C-terminal A (protein)
VH: EVQLLESGGGLVQAGGSLRLSCAASGFTFAHETMVWVRQAPGKGLEWVSHIPPDGQDPFYADSVKGRFTISRDNSKNTLYLQMNSLRAEDTAVYHCALLPKRGPWFDYWGQGTLVTVSSA
B3: the Mean % inhibition of signal in confirmation assay in test [1] came to 8.76%.

B4: DOM1H-131-206 C-terminal ASTKG (protein)
VH: EVQLLESGGGLVQPGGSLRLSCAASGFTFAHETMVWVRQAPGKGLEWVSHIPPDGQDPFYADSVKGRFTISRDNSKNTLYLQMNSLRAEDTAVYHCALLPKRGPWFDYWGQGTLVTVSSASTKG
Regarding B4, the values for the Mean % inhibition of signal in confirmation assay in test [3] and in test [1] were 28.3% and 1.77%, respectively. The molecule also showed a % subjects with ADA binding (10 subjects) (% of subjects) in test [4] of 40.

B5: DOM1H-131-206 P14Q + C-terminal ASTKG (protein, name in Kabat numbering)
VH: EVQLLESGGGLVQQGGSLRLSCAASGFTFAHETMVWVRQAPGKGLEWVSHIPPDGQDPFYADSVKGRFTISRDNSKNTLYLQMNSLRAEDTAVYHCALLPKRGPWFDYWGQGTLVTVSSASTKG
B5 returned a Mean % inhibition of signal in confirmation assay in test [1] of 21.8%. For the same molecule, the % subjects with ADA binding (10 subjects) (% of subjects) in test [2] was 10.

B6: DOM1H-131-206 P14A + C-terminal ASTKG (protein)
VH: EVQLLESGGGLVQAGGSLRLSCAASGFTFAHETMVWVRQAPGKGLEWVSHIPPDGQDPFYADSVKGRFTISRDNSKNTLYLQMNSLRAEDTAVYHCALLPKRGPWFDYWGQGTLVTVSSASTKG
With B6, the Mean % inhibition of signal in confirmation assay in test [1] worked out at 11.9%.

B7: DOM1H-131-206 P14K + C-terminal ASTKG (protein, name in Kabat numbering)
VH: EVQLLESGGGLVQKGGSLRLSCAASGFTFAHETMVWVRQAPGKGLEWVSHIPPDGQDPFYADSVKGRFTISRDNSKNTLYLQMNSLRAEDTAVYHCALLPKRGPWFDYWGQGTLVTVSSASTKG
B7: in test [1], the Mean % inhibition of signal in confirmation assay stood at 25%. In addition, the % subjects with ADA binding (10 subjects) (% of subjects) in test [2] was found to be 10.

B8: DOM1H-131-206 P14T + C-terminal ASTKG (protein, name in Kabat numbering)
VH: EVQLLESGGGLVQTGGSLRLSCAASGFTFAHETMVWVRQAPGKGLEWVSHIPPDGQDPFYADSVKGRFTISRDNSKNTLYLQMNSLRAEDTAVYHCALLPKRGPWFDYWGQGTLVTVSSASTKG
On to B8, for which the Mean % inhibition of signal in confirmation assay in test [1] is 17.2%.

B9: DT04-H-033 C-terminal A (protein)
VH: EVQLLESGGGLVQPGGSLRLSCAASGFTFADYGMAWVRQAPGKGLEWVSTISYNGLYTYYADSVKGRTISRDNSKNTLYLQMNSLRAEDTAVYYCAKYEYSPESDFDYWGQGTLVTVSSA
In test [3], B9 returned a Mean % inhibition of signal in confirmation assay of 12.5%.

B10: DT04-H-033 C-terminal AAA (protein)
VH: EVQLLESGGGLVQPGGSLRLSCAASGFTFADYGMAWVRQAPGKGLEWVSTISYNGLYTYYADSVKGRTISRDNSKNTLYLQMNSLRAEDTAVYYCAKYEYSPESDFDYWGQGTLVTVSSAAA
On to B10, for which the Mean % inhibition of signal in confirmation assay in test [3] is 11%.

B11: DT04-H-033 C-terminal AST (protein)
VH: EVQLLESGGGLVQPGGSLRLSCAASGFTFADYGMAWVRQAPGKGLEWVSTISYNGLYTYYADSVKGRTISRDNSKNTLYLQMNSLRAEDTAVYYCAKYEYSPESDFDYWGQGTLVTVSSAST
In turn, B11 displayed a Mean % inhibition of signal in confirmation assay in test [3] of 14%.

B12: DT04-H-033 C-terminal AS (protein)
VH: EVQLLESGGGLVQPGGSLRLSCAASGFTFADYGMAWVRQAPGKGLEWVSTISYNGLYTYYADSVKGRTISRDNSKNTLYLQMNSLRAEDTAVYYCAKYEYSPESDFDYWGQGTLVTVSSAS
Molecule B12 displayed a Mean % inhibition of signal in confirmation assay in test [3] of 8.26%.

B13: DOM1H-131-206 L108Q (protein, name in Kabat numbering)
VH: EVQLLESGGGLVQPGGSLRLSCAASGFTFAHETMVWVRQAPGKGLEWVSHIPPDGQDPFYADSVKGRFTISRDNSKNTLYLQMNSLRAEDTAVYHCALLPKRGPWFDYWGQGTQVTVSS
Take B13: the Mean % inhibition of signal in confirmation assay in test [3] worked out at 90.9%. In test [4], this molecule came in with a % subjects with ADA binding (10 subjects) (% of subjects) of 100.

B14: DOM1H-131-206 Q13A (protein, name in Kabat numbering)
VH: EVQLLESGGGLVAPGGSLRLSCAASGFTFAHETMVWVRQAPGKGLEWVSHIPPDGQDPFYADSVKGRFTISRDNSKNTLYLQMNSLRAEDTAVYHCALLPKRGPWFDYWGQGTLVTVSS
As for B14, the Mean % inhibition of signal in confirmation assay in test [3] amounted to 99.2%. The % subjects with ADA binding (10 subjects) (% of subjects) in test [4] came to 100.

B15: DOM1H-131-206 P14A (protein)
VH: EVQLLESGGGLVQAGGSLRLSCAASGFTFAHETMVWVRQAPGKGLEWVSHIPPDGQDPFYADSVKGRFTISRDNSKNTLYLQMNSLRAEDTAVYHCALLPKRGPWFDYWGQGTLVTVSS
For B15, the Mean % inhibition of signal in confirmation assay in test [3] turned out to be 58.3%. Moreover, in test [4], the % subjects with ADA binding (10 subjects) (% of subjects) was determined as 100.

B16: DOM1H-131-206 P14K (protein, name in Kabat numbering)
VH: EVQLLESGGGLVQKGGSLRLSCAASGFTFAHETMVWVRQAPGKGLEWVSHIPPDGQDPFYADSVKGRFTISRDNSKNTLYLQMNSLRAEDTAVYHCALLPKRGPWFDYWGQGTLVTVSS
In test [1], B16 yielded a Mean % inhibition of signal in confirmation assay of 46.7%. In addition, the % subjects with ADA binding (10 subjects) (% of subjects) in test [2] worked out at 50.

B17: DOM1H-131-206 L11A (protein, name in Kabat numbering)
VH: EVQLLESGGGAVQPGGSLRLSCAASGFTFAHETMVWVRQAPGKGLEWVSHIPPDGQDPFYADSVKGRFTISRDNSKNTLYLQMNSLRAEDTAVYHCALLPKRGPWFDYWGQGTLVTVSS
The molecule B17 came in with a Mean % inhibition of signal in confirmation assay in test [1] of 98%. In addition, the % subjects with ADA binding (10 subjects) (% of subjects) in test [2] came to 100.

B18: DOM1H-131-206 P14E (protein, name in Kabat numbering)
VH: EVQLLESGGGLVQEGGSLRLSCAASGFTFAHETMVWVRQAPGKGLEWVSHIPPDGQDPFYADSVKGRFTISRDNSKNTLYLQMNSLRAEDTAVYHCALLPKRGPWFDYWGQGTLVTVSS
In test [1], B18 registered a Mean % inhibition of signal in confirmation assay of 47.2%. Moreover, in test [2], the % subjects with ADA binding (10 subjects) (% of subjects) stood at 60.

B19: DOM1H-131-206 L108A (protein, name in Kabat numbering)
VH: EVQLLESGGGLVQPGGSLRLSCAASGFTFAHETMVWVRQAPGKGLEWVSHIPPDGQDPFYADSVKGRFTISRDNSKNTLYLQMNSLRAEDTAVYHCALLPKRGPWFDYWGQGTAVTVSS
Molecule B19 registered a Mean % inhibition of signal in confirmation assay in test [1] of 94.3%. Besides, in test [2], the % subjects with ADA binding (10 subjects) (% of subjects) stood at 100.

B20: DOM1H-131-206 P14Q (protein, name in Kabat numbering)
VH: EVQLLESGGGLVQQGGSLRLSCAASGFTFAHETMVWVRQAPGKGLEWVSHIPPDGQDPFYADSVKGRFTISRDNSKNTLYLQMNSLRAEDTAVYHCALLPKRGPWFDYWGQGTLVTVSS
B20 had a Mean % inhibition of signal in confirmation assay in test [1] of 52.9%. In test [2], this molecule had a % subjects with ADA binding (10 subjects) (% of subjects) of 60.

B21: DOM1H-131-206 P14T (protein, name in Kabat numbering)
VH: EVQLLESGGGLVQTGGSLRLSCAASGFTFAHETMVWVRQAPGKGLEWVSHIPPDGQDPFYADSVKGRFTISRDNSKNTLYLQMNSLRAEDTAVYHCALLPKRGPWFDYWGQGTLVTVSS
On to B21, for which the Mean % inhibition of signal in confirmation assay in test [1] turned out to be 68.9%. The molecule further registered a % subjects with ADA binding (10 subjects) (% of subjects) in test [2] of 100.

B22: DOM1H-131-206 T110A (protein, name in Kabat numbering)
VH: EVQLLESGGGLVQPGGSLRLSCAASGFTFAHETMVWVRQAPGKGLEWVSHIPPDGQDPFYADSVKGRFTISRDNSKNTLYLQMNSLRAEDTAVYHCALLPKRGPWFDYWGQGTLVAVSS
B22 came in with a Mean % inhibition of signal in confirmation assay in test [1] of 78.8%. Also, in test [2], the % subjects with ADA binding (10 subjects) (% of subjects) worked out at 100.

B23: DOM1H-131-206 S112A (protein, name in Kabat numbering)
VH: EVQLLESGGGLVQPGGSLRLSCAASGFTFAHETMVWVRQAPGKGLEWVSHIPPDGQDPFYADSVKGRFTISRDNSKNTLYLQMNSLRAEDTAVYHCALLPKRGPWFDYWGQGTLVTVAS
The molecule B23 yielded a Mean % inhibition of signal in confirmation assay in test [1] of 77.1%. Besides, the % subjects with ADA binding (10 subjects) (% of subjects) in test [2] came to 80.

B24: DOM1H-131-206 C-terminal AS (protein)
VH: EVQLLESGGGLVQPGGSLRLSCAASGFTFAHETMVWVRQAPGKGLEWVSHIPPDGQDPFYADSVKGRFTISRDNSKNTLYLQMNSLRAEDTAVYHCALLPKRGPWFDYWGQGTLVTVSSAS
In test [3], B24 yielded a Mean % inhibition of signal in confirmation assay of 16.3%.

B25: DOM1H-131-206 C-terminal ASTK (protein)
VH: EVQLLESGGGLVQPGGSLRLSCAASGFTFAHETMVWVRQAPGKGLEWVSHIPPDGQDPFYADSVKGRFTISRDNSKNTLYLQMNSLRAEDTAVYHCALLPKRGPWFDYWGQGTLVTVSSASTK
Molecule B25 yielded a Mean % inhibition of signal in confirmation assay in test [3] of 19.6%. This molecule also had a % subjects with ADA binding (10 subjects) (% of subjects) in test [4] of 40.

B26: DOM1H-131-206 C-terminal S deletion (ΔS) (protein)
VH: EVQLLESGGGLVQPGGSLRLSCAASGFTFAHETMVWVRQAPGKGLEWVSHIPPDGQDPFYADSVKGRFTISRDNSKNTLYLQMNSLRAEDTAVYHCALLPKRGPWFDYWGQGTLVTVS
As for B26, the Mean % inhibition of signal in confirmation assay in test [1] was 44.7%. The molecule also gave a % subjects with ADA binding (10 subjects) (% of subjects) in test [2] of 40.

The values are drawn from patent publication US20250136721A1 (GlaxoSmithKline, published 2025).
